Results on 3 substances are retold here after US8138323.

Assay [1] concerns the target Tumor Necrosis Factor (TNF) Binding Protein II (human) (UniProt P20333). The assay can be described thus: solid phase assay, 125I-TBP-II bound to TNF-α with 10 µg/ml IFN-gamma as competitor.
Assay [2] addresses TNF Binding Protein I (human) (UniProt P19438). The assay can be described thus: solid phase assay, 125I-TBP-I bound to TNF-α with 10 µg/ml IFN-gamma as competitor.
For assay [3], the target named is Tumor Necrosis Factor (TNF) Binding Protein II (human) (UniProt P20333). The assay can be described thus: solid phase assay, 125I-TBP-II bound to TNF-α with 10 µg/ml IL-1α as competitor.
Assay [4] addresses TNF Binding Protein I (human) (UniProt P19438). The assay can be described thus: solid phase assay, 125I-TBP-I bound to TNF-α with 10 µg/ml IL-1α as competitor.
In assay [5] the target is Tumor Necrosis Factor (TNF) Binding Protein II (human) (UniProt P20333). As to the kind of experiment: solid phase assay, 125I-TBP-II bound to TNF-α with 10 µg/ml IL-6 as competitor.
Assay [6] concerns the target TNF Binding Protein I (human) (UniProt P19438). The assay can be described thus: solid phase assay, 125I-TBP-I bound to TNF-α with 10 µg/ml IL-6 as competitor.

With “IFN-gamma (from UniProt P01579 24-166) (ligand)”, the bound CPM in assay [1] is 18500 CPM; in assay [2], 28000 CPM.

“IL-1α (from UniProt P01583 113-271) (ligand)”: the bound CPM in assay [3] worked out at 17800 CPM; in assay [4] it was 28100 CPM.

As to “IL-6 (from UniProt P05231 30-212) (ligand)”, the bound CPM in assay [5] was 18600 CPM; in assay [6], 27000 CPM.
